According to PMC10480278:
Where “and” joins values, the source holds several entries; their conditions need not be identical. Identical values can stand only once.

Experiments:
Glu216 = Glu216 (UniProt position 216, GIFLAEIWAEA); assay: kinetics; conditions: 70 °C; mixture of citrate, phosphate and glycine buffers (100 mM each); Enzyme turning over starch and maltose (activity assay); 0.5 U/mL purified enzyme
Asp186 = Asp186 (UniProt position 186, DGFRFDAAKHM); assay: kinetics; conditions: 70 °C; mixture of citrate, phosphate and glycine buffers (100 mM each); Enzyme turning over starch and maltose (activity assay); 0.5 U/mL purified enzyme

Substance	pKa (Glu216)	pKa (Asp186)
4-alpha-glucanotransferase (TmGTase) W131G (Thermotoga maritima; W131G)	8.9 ± 0.1	4.7 ± 0.1 and 4.5 ± 0.09
4-alpha-glucanotransferase (TmGTase) truncated loop variant (Thermotoga maritima; del120-124;del128-131)	8.9 ± 0.1	4.6 ± 0.1
4-alpha-glucanotransferase (TmGTase), wild type (Thermotoga maritima)	8.9 ± 0.1	4.4 ± 0.1
